Each block holds one molecule with its values, some of them ahead of it.
B1: Egr^146–409 (extracellular portion of Eiger, His6-tagged) (domain or fragment, Drosophila melanogaster, UniProt Q8MUJ1-2 146-409, looked up)
chain: GADYEDYTDMLNKLNNAHTGTTPTSETTAEGEGETDSASSASNDDNVFDDFTSYNAHKKKQERKSRSIADVRNEEQNIQGNHTELQEKSSNEATSKESPAPLHHRRRMHSRHRHLLVRKARSEDSRPAAHFHLSSRRRHQGSMGYHGDMYIGNDNERNSYQGHFQTRDGVLTVTNTGLYYVYAQICYNNSHDQNGFIVFQGDTPFLQCLNTVPTNMPHKVHTCHTSGLIHLERNERIHLKDIHNDRNAVLREGNNRSYFGIFKV
notes: Cloned in a pET43 vector; Trimer by static light scattering; also called Egr/TNF; Egr extracellular domain; source: E. coli SHuffle cells, purified (HiTrap chelating Ni column, Superdex-200 SEC)
B2: Egr^269–409 (TNF-homology domain of Eiger, tryptic fragment) (domain or fragment, Drosophila melanogaster, UniProt Q8MUJ1-2 269-409, looked up)
chain: DSRPAAHFHLSSRRRHQGSMGYHGDMYIGNDNERNSYQGHFQTRDGVLTVTNTGLYYVYAQICYNNSHDQNGFIVFQGDTPFLQCLNTVPTNMPHKVHTCHTSGLIHLERNERIHLKDIHNDRNAVLREGNNRSYFGIFKV
notes: Trimer in the crystal (threefold crystallographic symmetry); also called Egr-TNF; TNF domain of Egr

Key:
[1] = target: Egr^146–409 (extracellular portion of Eiger, His6-tagged) (Drosophila melanogaster) (UniProt Q8MUJ1); test: ITC; MicroCal PEAQ-ITC, 25 °C, 0.02 M Tris-HCl pH 8.0, 0.3 M NaCl; Grnd^30–97 at 100–340 μM titrated into 8 μM Egr^146–409; Wgn^78–201 at 4.5 mM titrated into 410 μM Egr^146–409; single-site fit
[2] = target: the molecule itself; test: SEC-MALS; static light scattering, Viscotek GPCmax/TDA with a Superdex 200-10/300 increase column, 0.02 M Tris-HCl pH 8.0, 0.3 M NaCl, 5% glycerol; about 75 μL at about 2 mg/mL (Egr alone and the two complexes)
[3] = target: T1, Grnd^30–97 His66Ala (Drosophila melanogaster, UniProt Q9VJ83 30-97, His66Ala); test: ITC
T1 sequence: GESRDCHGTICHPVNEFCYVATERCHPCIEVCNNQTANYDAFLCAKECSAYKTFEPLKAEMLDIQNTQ

[4] = target: T2, Grnd^30–97 Asn67Ala (Drosophila melanogaster, UniProt Q9VJ83 30-97, Asn67Ala); test: ITC
T2 sequence: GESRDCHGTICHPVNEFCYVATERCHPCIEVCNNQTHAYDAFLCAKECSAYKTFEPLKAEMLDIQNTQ

[5] = target: T3, Grnd^30–97 Glu52Ala (Drosophila melanogaster, UniProt Q9VJ83 30-97, Glu52Ala); test: ITC
T3 sequence: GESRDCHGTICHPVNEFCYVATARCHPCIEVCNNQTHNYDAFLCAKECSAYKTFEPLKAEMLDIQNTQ

[6] = target: the molecule itself; test: crystal structure; Egr^269–409:Grnd^30–81 complex, 2.02 Å, space group P321, one 1:1 complex per asymmetric unit, 3:3 hetero-hexamer by the crystallographic threefold axis
[7] = target: T4, Strep-Egr^146–409 Asn333Ala (Drosophila melanogaster, UniProt Q8MUJ1-2 146-409, Asn333 with Ala); test: pull-down; 2 μM strep-tagged Egr^146–409 adsorbed on Strep-tactin beads, 10 μM Grnd^30–97 in solution, 1 h at 4 °C, 0.01 M Hepes pH 7.5, 0.1 M NaCl, 5% glycerol, 0.05% Tween, 0.5 mM EDTA; Coomassie staining; conditions: both partners purified
T4 construct: also called substitution of the Egr glycosylation site Asn333 with Ala; source: mutation by QuikChange
T4 sequence (looked up): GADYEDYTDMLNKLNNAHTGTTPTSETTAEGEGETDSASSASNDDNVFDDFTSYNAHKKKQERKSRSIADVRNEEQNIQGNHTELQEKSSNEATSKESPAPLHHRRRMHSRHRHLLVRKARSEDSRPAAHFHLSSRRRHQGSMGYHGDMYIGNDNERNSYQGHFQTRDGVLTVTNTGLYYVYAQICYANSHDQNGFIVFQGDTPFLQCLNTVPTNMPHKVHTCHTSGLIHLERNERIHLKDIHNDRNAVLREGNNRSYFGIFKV

[8] = target: B1; test: ITC; MicroCal PEAQ-ITC, 25 °C, 0.02 M Tris-HCl pH 8.0, 0.3 M NaCl; Grnd^30–97 at 100–340 μM titrated into 8 μM Egr^146–409; Wgn^78–201 at 4.5 mM titrated into 410 μM Egr^146–409; single-site fit; conditions: both partners purified
[9] = target: T5, Strep-Egr^146–409 (Drosophila melanogaster, UniProt Q8MUJ1-2 146-409); test: pull-down; 2 μM strep-tagged Egr^146–409 adsorbed on Strep-tactin beads, 10 μM Grnd^30–97 in solution, 1 h at 4 °C, 0.01 M Hepes pH 7.5, 0.1 M NaCl, 5% glycerol, 0.05% Tween, 0.5 mM EDTA; Coomassie staining; conditions: both partners purified
T5 construct: probably SHuffle cells as for the His6 construct
T5 sequence (looked up): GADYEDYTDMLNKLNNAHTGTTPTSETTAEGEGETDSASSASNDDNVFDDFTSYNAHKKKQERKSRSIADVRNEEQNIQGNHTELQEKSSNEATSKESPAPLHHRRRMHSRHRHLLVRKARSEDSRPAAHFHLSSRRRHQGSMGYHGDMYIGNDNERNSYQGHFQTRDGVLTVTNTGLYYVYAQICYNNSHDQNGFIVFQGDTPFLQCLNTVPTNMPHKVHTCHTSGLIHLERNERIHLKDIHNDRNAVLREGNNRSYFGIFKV

[10] = target: B2; test: SEC; 30 μM Egr^146–409 incubated with Grnd^30–97 in a 1:1.3 molar ratio, treated with trypsin, loaded on a Superdex-5/150 column; fractions on Coomassie SDS-PAGE; conditions: both partners purified

Molecule: Wgn^78–201 (whole extracellular domain of Wengen) (from UniProt Q9VWS4 78-201) (domain or fragment)
Kd [1]: 12 µM

Molecule: B1
stoichiometry N [2]: 3
Kd [3]: 4.8 µM
Kd [4]: 4.5 µM
Kd [5]: 1.3 µM

Molecule: B2
stoichiometry N [6]: 3

B3: Grnd^30–97 (extracellular domain of Grindelwald) (domain or fragment, Drosophila melanogaster, UniProt Q9VJ83 30-97, looked up)
chain: GESRDCHGTICHPVNEFCYVATERCHPCIEVCNNQTHNYDAFLCAKECSAYKTFEPLKAEMLDIQNTQ
notes: Grindelwald (Grnd), Drosophila melanogaster, extracellular domain, residues 30-97; pETM14 vector; His6-tag removed with PreScission protease; Monomer by static light scattering; also called wild-type Grnd^30–97; source: E. coli SHuffle B cells (NEB), purified (Ni HiTrap, PreScission, Resource-Q); not shown: His6, N-terminal, cleaved
binding result [7]: binds
Kd [8]: ~0.03 µM

More lines, now with the values ahead:

binding result [9]: binds
binding result [8]: binds
B4: Grnd^30–97 His66Ala (domain or fragment, Drosophila melanogaster, UniProt Q9VJ83 30-97, looked up)
chain: GESRDCHGTICHPVNEFCYVATERCHPCIEVCNNQTANYDAFLCAKECSAYKTFEPLKAEMLDIQNTQ
notes: Grindelwald (Grnd), Drosophila melanogaster, extracellular domain, residues 30-97; also called His66Ala^Grnd; Grnd-His66Ala; source: E. coli SHuffle B cells, purified (as Grnd^30–97); mutation by QuikChange; not shown: His6, N-terminal, cleaved

binding result [9]: binds
binding result [8]: binds
B5: Grnd^30–97 Glu52Ala (domain or fragment, Drosophila melanogaster, UniProt Q9VJ83 30-97, looked up)
chain: GESRDCHGTICHPVNEFCYVATARCHPCIEVCNNQTHNYDAFLCAKECSAYKTFEPLKAEMLDIQNTQ
notes: Grindelwald (Grnd), Drosophila melanogaster, extracellular domain, residues 30-97; also called Glu52Ala^Grnd; Grnd-Glu52Ala; source: E. coli SHuffle B cells, purified (as Grnd^30–97); mutation by QuikChange; not shown: His6, N-terminal, cleaved

binding result [9]: binds
binding result [8]: binds
B6: Grnd^30–97 Asn67Ala (domain or fragment, Drosophila melanogaster, UniProt Q9VJ83 30-97, looked up)
chain: GESRDCHGTICHPVNEFCYVATERCHPCIEVCNNQTHAYDAFLCAKECSAYKTFEPLKAEMLDIQNTQ
notes: Grindelwald (Grnd), Drosophila melanogaster, extracellular domain, residues 30-97; also called Asn67Ala^Grnd; Grnd-Asn67Ala; source: E. coli SHuffle B cells, purified (as Grnd^30–97); mutation by QuikChange; not shown: His6, N-terminal, cleaved

binding result [10]: binds
B7: Grnd^30–81 (tryptic fragment of the extracellular domain of Grindelwald) (domain or fragment, Drosophila melanogaster, UniProt Q9VJ83 30-81, looked up)
chain: GESRDCHGTICHPVNEFCYVATERCHPCIEVCNNQTHNYDAFLCAKECSAYK
notes: Grindelwald (Grnd), Drosophila melanogaster, residues 30-81; limits assigned by mass spectrometry; models hold residues 34-81 (free) and 31-81 (complex); also called Grnd-ECD; Grnd-CRD

— paper PMC8024323, “Drosophila TNFRs Grindelwald and Wengen bind Eiger with different affinities and promote distinct cellular functions” (Nature Communications, 2021)
